In patent publication US20180118789A1:

What was measured:
[1] = molecular target: mouse melanocortin 3 receptor (mouse) (UniProt P33033); assay: cell-based or functional assay
[2] = molecular target: mouse melanocortin 1 receptor (mouse) (UniProt Q01727); assay: cell-based or functional assay
mouse melanocortin 1 receptor (mouse), sequence (Q01727 whole entry): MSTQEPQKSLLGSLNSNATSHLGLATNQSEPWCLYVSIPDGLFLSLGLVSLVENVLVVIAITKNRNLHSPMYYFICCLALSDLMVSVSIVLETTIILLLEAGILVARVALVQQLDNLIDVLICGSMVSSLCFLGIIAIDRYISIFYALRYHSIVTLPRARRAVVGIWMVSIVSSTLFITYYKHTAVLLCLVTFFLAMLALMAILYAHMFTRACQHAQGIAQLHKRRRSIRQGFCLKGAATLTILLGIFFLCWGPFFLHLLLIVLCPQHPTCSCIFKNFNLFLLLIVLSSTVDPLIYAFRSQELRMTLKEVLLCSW

mouse melanocortin 3 receptor (mouse), sequence (P33033 whole entry): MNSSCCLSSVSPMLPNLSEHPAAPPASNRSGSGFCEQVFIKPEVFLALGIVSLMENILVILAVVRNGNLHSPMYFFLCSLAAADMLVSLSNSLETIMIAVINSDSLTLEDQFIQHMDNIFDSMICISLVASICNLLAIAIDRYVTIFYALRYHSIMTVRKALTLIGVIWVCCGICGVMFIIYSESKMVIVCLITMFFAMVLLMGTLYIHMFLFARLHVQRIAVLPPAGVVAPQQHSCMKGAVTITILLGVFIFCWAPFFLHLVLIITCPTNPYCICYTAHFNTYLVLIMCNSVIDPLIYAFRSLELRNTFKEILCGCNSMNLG

EC50 (nM), agonist, cAMP AlphaScreen [1]: 0.09 nM
EC50 (nM), agonist, cAMP AlphaScreen [2]: 0.015 nM
Substance: NDP-MSH (4-Norleucine-7-D-Phenylalanine), Ac-Ser-Tyr-Ser-Nle-Glu-His-DPhe-Arg-Trp-Gly-Lys-Pro-Val-NH2 (peptide)
